Results as given in publication PMC8497992, “Structural and functional characterization explains loss of dNTPase activity of the cancer-specific R366C/H mutant SAMHD1 proteins” (The Journal of Biological Chemistry, 2021).
Residue numbers refer to the chain shown, from its start. Numbers in names are those of the source.

B1: SAMHD1 (113-626) H206R/D207N/R366C (domain or fragment, UniProt Q9Y3Z3 113-626, looked up)
chain: DTMKVINDPIHGHIELHPLLVRIIDTPQFQRLRYIKQLGGGYYVFPGASHNRFEHSLGVGYLAGCLVHALGEKQPELQISERDVLCVQIAGLCRNLGHGPFSHMFDGRFIPLARPEVKWTHEQGSVMMFEHLINSNGIKPVMEQYGLIPEEDICFIKEQIVGPLESPVEDSLWPYKGRPENKSFLYEIVSNKRNGIDVDKWDYFARDCHHLGIQNNFDYKRFIKFARVCEVDNELRICARDKEVGNLYDMFHTCNSLHRRAYQHKVGNIIDTMITDAFLKADDYIEITGAGGKKYRISTAIDDMEAYTKLTDNIFLEILYSTDPKLKDAREILKQIEYRNLFKYVGETQPTGQIKIKREDYESLPKEVASAKPKVLLDVKLKAEDFIVDVINMDYGMQEKNPIDHVSFYCKTAPNRAIRITKNQVSQLLPEKFAEQLIRVYCKKVDRKSLYAARQYFVQWCADRNFTKPQDGDVIAPLITPQKKEWNDSTSVQNPTRLREASKSRVQLFKDDPM
notes: Crystallised with 4 mM dGTP; also called R366C (crystal construct); SAMHD1 HD/RN R366C
B2: SAMHD1 (113-626) H206R/D207N/R366H (domain or fragment, UniProt Q9Y3Z3 113-626, looked up)
chain: B1 chain with C254H
notes: Crystallised with 4 mM dGTP; also called R366H (crystal construct); SAMHD1 HD/RN R366H

Biological target: the molecule itself
Assay: crystal structure; HD domain (113-626) H206R/D207N constructs, 4 mg/ml, with 4 mM dGTP; microbatch under oil; 100 mM succinic acid-phosphate-glycine buffer, 30% PEG1500; tetramer

Protein	stoichiometry N
B1	4
B2	4
